Measurements as given in the supplement of paper PMC9112550, “Optimization of the antimicrobial peptide Bac7 by deep mutational scanning” (BMC Biology, 2022).

system: Escherichia coli TOP10; test: shrunken log2 fold change of peptide-encoding DNA abundance (4.5 h post-induction vs induction); higher = less antimicrobial activity (less host growth inhibition); conditions: time post-induction: 4.5 h; library: site-saturation at positions 5, 18, 19, 20
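Also: peptides expressed intracellularly from a pBAD plasmid library in pooled LB shake-flask culture, induced with 0.3% L-arabinose, DNA abundance read by NGS, three biological replicates, DESeq2 with apeglm shrinkage.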

| Sequence | shrunken log2 fold change |
| --- | --- |
| RRIRGRPPRLPRPRPRPFKHPRP | -0.527 |
| RRIRCRPPRLPRPRPRPDWTPRP | -0.268 |
| RRIRQRPPRLPRPRPRPEHYPRP | -0.153 |
| RRIRCRPPRLPRPRPRPLQHPRP | -0.0615 |
| RRIRIRPPRLPRPRPRPDCNPRP | -0.164 |
| RRIRQRPPRLPRPRPRPTWNPRP | -0.0697 |
| RRIRKRPPRLPRPRPRPVSHPRP | 0.0254 |
| RRIRMRPPRLPRPRPRPHFTPRP | -0.173 |
| RRIRLRPPRLPRPRPRPFCMPRP | -0.623 |
| RRIRLRPPRLPRPRPRPPHFPRP | 0.437 |
| RRIRERPPRLPRPRPRPHTYPRP | -0.281 |
| RRIRCRPPRLPRPRPRPTWNPRP | 0.128 |
| RRIRTRPPRLPRPRPRPHNKPRP | -0.702 |
| RRIRARPPRLPRPRPRPKDQPRP | 0.504 |
| RRIRHRPPRLPRPRPRPAMTPRP | -0.00367 |
| RRIRIRPPRLPRPRPRPSVSPRP | -0.0804 |
| RRIRPRPPRLPRPRPRPEQKPRP | 0.000209 |
| RRIRLRPPRLPRPRPRPKTDPRP | -0.233 |
| RRIRARPPRLPRPRPRPHPAPRP | 0.478 |
| RRIRARPPRLPRPRPRPHYHPRP | -0.332 |
| RRIRPRPPRLPRPRPRPHAYPRP | -0.317 |
| RRIRQRPPRLPRPRPRPEFKPRP | -0.0763 |

| Sequence | shrunken log2 fold change |
| --- | --- |
| RRIRRRPPRLPRPRPRPMVTPRP | 0.247 |
| RRIRERPPRLPRPRPRPMDNPRP | -0.626 |
| RRIRARPPRLPRPRPRPGMVPRP | 0.509 |
| RRIRCRPPRLPRPRPRPAGEPRP | 0.598 |
| RRIRHRPPRLPRPRPRPVANPRP | -0.0206 |
| RRIRRRPPRLPRPRPRPHHIPRP | -0.637 |
| RRIRLRPPRLPRPRPRPQYGPRP | 0.0165 |
| RRIRDRPPRLPRPRPRPHELPRP | -0.124 |
| RRIRMRPPRLPRPRPRPWLDPRP | 0.0568 |
| RRIRRRPPRLPRPRPRPCNSPRP | 0.00408 |
| RRIRYRPPRLPRPRPRPTLRPRP | -0.484 |
| RRIRHRPPRLPRPRPRPGVPPRP | 0.191 |
| RRIRHRPPRLPRPRPRPTIKPRP | -0.304 |
| RRIRARPPRLPRPRPRPPLLPRP | 0.543 |
| RRIRTRPPRLPRPRPRPIMQPRP | -0.201 |
| RRIRGRPPRLPRPRPRPFEHPRP | 0.212 |
| RRIRARPPRLPRPRPRPPGQPRP | 0.0736 |
| RRIRDRPPRLPRPRPRPPNPPRP | 0.0735 |
| RRIRWRPPRLPRPRPRPKAHPRP | 0.197 |
| RRIRWRPPRLPRPRPRPPEPPRP | -0.011 |
| RRIRARPPRLPRPRPRPPSTPRP | 0.563 |
| RRIRWRPPRLPRPRPRPQFQPRP | -0.523 |

| Sequence | shrunken log2 fold change |
| --- | --- |
| RRIRPRPPRLPRPRPRPTRWPRP | -0.0766 |
| RRIRMRPPRLPRPRPRPRFYPRP | 0.322 |
| RRIRGRPPRLPRPRPRPVNWPRP | 0.302 |
| RRIRVRPPRLPRPRPRPDTYPRP | -0.995 |
| RRIRCRPPRLPRPRPRPRFGPRP | 0.316 |
| RRIRCRPPRLPRPRPRPMDYPRP | -0.181 |
| RRIRARPPRLPRPRPRPEEWPRP | 0.0407 |
| RRIRLRPPRLPRPRPRPECDPRP | -0.00082 |
| RRIRNRPPRLPRPRPRPNVHPRP | -0.309 |
| RRIRGRPPRLPRPRPRPDFLPRP | 0.318 |
| RRIRIRPPRLPRPRPRPNRDPRP | -0.0377 |
| RRIRIRPPRLPRPRPRPHWIPRP | -0.157 |
| RRIRPRPPRLPRPRPRPPMCPRP | 0.0827 |
| RRIRDRPPRLPRPRPRPNQSPRP | -0.527 |
| RRIRRRPPRLPRPRPRPLHNPRP | 0.188 |
| RRIRVRPPRLPRPRPRPGCWPRP | 0.594 |
| RRIRQRPPRLPRPRPRPDNAPRP | -0.246 |
| RRIRHRPPRLPRPRPRPNEHPRP | 0.409 |
| RRIRPRPPRLPRPRPRPLRCPRP | 0.394 |
| RRIRTRPPRLPRPRPRPFYHPRP | -0.486 |
| RRIRGRPPRLPRPRPRPSQWPRP | 0.101 |
| RRIRGRPPRLPRPRPRPIYPPRP | 0.119 |

| Sequence | shrunken log2 fold change |
| --- | --- |
| RRIRQRPPRLPRPRPRPSNGPRP | -0.687 |
| RRIRVRPPRLPRPRPRPVEPPRP | 0.218 |
| RRIRVRPPRLPRPRPRPGCCPRP | 0.385 |
| RRIRLRPPRLPRPRPRPPVWPRP | 0.591 |
| RRIRGRPPRLPRPRPRPIEVPRP | 0.289 |
| RRIRKRPPRLPRPRPRPEARPRP | 0.429 |
| RRIRERPPRLPRPRPRPGKRPRP | 0.093 |
| RRIRNRPPRLPRPRPRPQEPPRP | 0.084 |
| RRIRKRPPRLPRPRPRPTISPRP | -0.279 |
| RRIRQRPPRLPRPRPRPPSAPRP | 0.5 |
| RRIRARPPRLPRPRPRPQDEPRP | 0.195 |
| RRIRGRPPRLPRPRPRPRYMPRP | -0.0195 |
| RRIRHRPPRLPRPRPRPATQPRP | -0.038 |
| RRIRCRPPRLPRPRPRPGEWPRP | 0.393 |
| RRIRHRPPRLPRPRPRPCITPRP | -0.472 |
| RRIRTRPPRLPRPRPRPEDNPRP | 0.168 |
| RRIRARPPRLPRPRPRPCLVPRP | 0.0528 |
| RRIRSRPPRLPRPRPRPNLDPRP | -0.0975 |
| RRIRTRPPRLPRPRPRPRTPPRP | 0.138 |
| RRIRRRPPRLPRPRPRPFQIPRP | -0.325 |
| RRIRRRPPRLPRPRPRPDSLPRP | 0.0868 |
| RRIRHRPPRLPRPRPRPLRDPRP | 0.271 |

| Sequence | shrunken log2 fold change |
| --- | --- |
| RRIRYRPPRLPRPRPRPVHPPRP | -0.186 |
| RRIRVRPPRLPRPRPRPYGNPRP | -0.0775 |
| RRIRVRPPRLPRPRPRPCNFPRP | -0.0271 |
| RRIRARPPRLPRPRPRPMWCPRP | 0.172 |
| RRIRKRPPRLPRPRPRPTKSPRP | 2.1 |
| RRIRGRPPRLPRPRPRPAIAPRP | 0.91 |
| RRIRMRPPRLPRPRPRPLQDPRP | 2.56 |
| RRIRDRPPRLPRPRPRPGWAPRP | 0.718 |
| RRIRMRPPRLPRPRPRPLKEPRP | 0.701 |
| RRIRLRPPRLPRPRPRPQYEPRP | -0.166 |
| RRIRSRPPRLPRPRPRPRQHPRP | 0.169 |
| RRIRPRPPRLPRPRPRPPAEPRP | 0.632 |
| RRIRCRPPRLPRPRPRPCEMPRP | -0.151 |
| RRIRHRPPRLPRPRPRPHETPRP | 0.0369 |
| RRIRQRPPRLPRPRPRPPRIPRP | 0.0686 |
| RRIRTRPPRLPRPRPRPILFPRP | -0.209 |
| RRIRMRPPRLPRPRPRPDWRPRP | 0.276 |
| RRIRDRPPRLPRPRPRPAGPPRP | 0.271 |
| RRIRYRPPRLPRPRPRPTPHPRP | -0.181 |
| RRIRFRPPRLPRPRPRPMMDPRP | 0.0995 |
| RRIRPRPPRLPRPRPRPDNFPRP | -1.15 |
